Measurements: paper PMC5394680

Target: Alexa488-labeled H3-H4 dimer (UniProt P84233)
Assay: fluorescence polarisation; 5 nM Alexa488-labeled H3-H4 dimer with increasing amounts of CAF-1; 25 mM TRIS pH 7.5, 300 mM NaCl, 5% glycerol, 1 mM EDTA, 0.01% NP-40, 0.01% CHAPS, 1 mM DTT

Substance | Kd
tCAF_∆3 (tCAF-1 sub-complex lacking the small subunit Cac3) (from UniProt Q12495 233-606; Q04199 1-449) | 1.3 nM
tCAF-1 (tCac1 233-606 with Cac2 and Cac3) (from UniProt Q12495 233-606; Q04199 1-449; P13712 1-422) (complex) | 0.5 nM
tCAF_Nac (trimeric tCAF-1 with the acidic region of Cac1 replaced by a neutral Gly-Ser-Leu peptide) (from UniProt Q12495 233-606; Q04199 1-449; P13712 1-422) (complex) | 8 nM
Cac3 (small subunit of yeast CAF-1) (from UniProt P13712 1-422) (natural protein) | 77 nM
tCAF_∆2 (tCAF-1 sub-complex lacking the middle subunit Cac2) (from UniProt Q12495 233-606; P13712 1-422) | 25 nM
tCAF_∆ac (trimeric tCAF-1 with the acidic region of Cac1 deleted) (from UniProt Q12495 233-606; Q04199 1-449; P13712 1-422) (complex) | 60 nM

Continued, values first:

Kd | Substance
0.3 nM | full-length (FL) yeast CAF-1 complex (from UniProt Q12495 1-606; Q04199 1-449; P13712 1-422)
> 1000 nM | Cac2 (middle subunit of yeast CAF-1), C-terminal His-tag (from UniProt Q04199 1-449) (natural protein)
